Reference: PMC3958483, “Fine Specificity and Molecular Competition in SLAM Family Receptor Signalling” (PLoS ONE, 2014)

Tested on: NK92 cells
Experiment: IFNγ production by NK92 cells
Type: cell-based, human
Conditions: TJW, unpublished

B1: PLCγ2: phospholipase C gamma-2 (protein)
chain: MSTTVNVDSLAEYEKSQIKRALELGTVMTVFSFRKSTPERRTVQVIMETRQVAWSKTADKIEGFLDIMEIKEIRPGKNSKDFERAKAVRQKEDCCFTILYGTQFVLSTLSLAADSKEDAVNWLSGLKILHQEAMNASTPTIIESWLRKQIYSVDQTRRNSISLRELKTILPLINFKVSSAKFLKDKFVEIGAHKDELSFEQFHLFYKKLMFEQQKSILDEFKKDSSVFILGNTDRPDASAVYLHDFQRFLIHEQQEHWAQDLNKVRERMTKFIDDTMRETAEPFLFVDEFLTYLFSRENSIWDEKYDAVDMQDMNNPLSHYWISSSHNTYLTGDQLRSESSPEAYIRCLRMGCRCIELDCWDGPDGKPVIYHGWTRTTKIKFDDVVQAIKDHAFVTSSFPVILSIEEHCSVEQQRHMAKAFKEVFGDLLLTKPTEASADQLPSPSQLREKIIIKHKKLGPRGDVDVNMEDKKDEHKQQGELYMWDSIDQKWTRHYCAIADAKLSFSDDIEQTMEEEVPQDIPPTELHFGEKWFHKKVEKRTSAEKLLQEYCMETGGKDGTFLVRESETFPNDYTLSFWRSGRVQHCRIRSTMEGGTLKYYLTDNLTFSSIYALIQHYRETHLRCAEFELRLTDPVPNPNPHESKPWYYDSLSRGEAEDMLMRIPRDGAFLIRKREGSDSYAITFRARGKVKHCRINRDGRHFVLGTSAYFESLVELVSYYEKHSLYRKMRLRYPVTPELLERYNMERDINSLYDVSRMYVDPSEINPSMPQRTVKALYDYKAKRSDELSFCRGALIHNVSKEPGGWWKGDYGTRIQQYFPSNYVEDISTADFEELEKQIIEDNPLGSLCRGILDLNTYNVVKAPQGKNQKSFVFILEPKQQGDPPVEFATDRVEELFEWFQSIREITWKIDTKENNMKYWEKNQSIAIELSDLVVYCKPTSKTKDNLENPDFREIRSFVETKADSIIRQKPVDLLKYNQKGLTRVYPKGQRVDSSNYDPFRLWLCGSQMVALNFQTADKYMQMNHALFSLNGRTGYVLQPESMRTEKYDPMPPESQRKILMTLTVKVLGARHLPKLGRSIACPFVEVEICGAEYDNNKFKTTVVNDNGLSPIWAPTQEKVTFEIYDPNLAFLRFVVYEEDMFSDPNFLAHATYPIKAVKSGFRSVPLKNGYSEDIELASLLVFCEMRPVLESEEELYSSCRQLRRRQEELNNQLFLYDTHQNLRNANRDALVKEFSVNENQLQLYQEKCNKRLREKRVSNSKFYS
- effect on IFNγ production by NK92 cells: activating
